Results on two molecules are retold here after patent US12466859B2, “Desmoglein 2 (DSG2) binding proteins and uses therefor” (UNIVERSITY OF WASHINGTON THROUGH ITS CENTER FOR …, priority 2013, dated 2025).

The subject of one assay is Ad3-GFP virus. As to the kind of experiment: Competition of Ad3-GFP virus infection on HeLa cells. The format is cell-based, adenovirus serotype 3. To be noted: pre-incubation with knob; GFP expression. The procedure: FIG. 3A-3D. Competition of Ad3 virus by dimerized Ad3 knob mutants. FIG. 3A) Relative attachment of ^3H-labeled Ad3 virus in the presence of dimeric fiber knob mutants. 1.8×10^5 HeLa cells were incubated with Ad3 knob mutants at a concentration of 2.5 and 100 μg/ml on ice for 1 hour. Then 400 pfu/cell of ^3H-Ad3 virus was added on ice for another hour. Unbound virus particles were washed away. Attachment of virus particles incubated with PBS was taken as 100%. N=3. FIG. 3B1-3B2) Competition of Ad3-GFP virus infection on HeLa cells. 1.5×10^5 HeLa cells were seeded into 24 well plates. Cells were incubated with the Ad3 knob mutants at increasing concentrations for one hour at room temperature. 100 pfu/cell of Ad3-GFP virus were then added and GFP expression was analyzed 18 hours later by flow cytometry. FIG. 3B1) percentage of GFP positive cells. FIG. 3B2) mean fluorescence intensity. N=3. The standard deviation was less than 10%. FIG. 3C) Relative attachment of ^3H-labeled Ad3 virus in the presence of dimeric fiber knob mutants with multiple mutations. The study was performed as described in […]) The standard deviation was less than 10%. FIG. 3D) Competition of Ad3-GFP virus infection on HeLa cells. The study was performed as described in FIG. 3C) The standard deviation was less than 10%.
FIG. 9A1-9C. Analysis of dimeric Ad3 fiber knob mutants with increased affinity to DSG2. FIG. 9A1-9A2) Competition of Ad3-GFP virus infection on HeLa cells with dimeric affinity-enhanced mutant Y250F and JO-1 (dimeric wt Ad3 fiber knob). The experimental setting is as described for FIG. 3C. FIG. 9A1) percentage of GFP positive cells. FIG. 9A2) mean fluorescence intensity. N=3. The standard deviation was less than 10%. […] 100 pfu/cell of Ad3GFP virus were then added and GFP expression was analyzed 18 hours later. […]
Functional validation. […] Transduction was measured based on GFP expression (FIG. 3B). […] Dimeric Ad3 knob mutants with combined mutations were also analyzed for their ability to compete with Ad3 virus for attachment (FIG. 3C) and infection (FIG. 3D).

Another assay has as its target T1, DSG2 (Homo sapiens, UniProt Q14126).
T1 construct: Western blot using soluble recombinant DSG2 as a probe; purchased Leinco Technologies, Inc. (St. Louis, MO)
T1 sequence (Q14126 50-609 limits assumed): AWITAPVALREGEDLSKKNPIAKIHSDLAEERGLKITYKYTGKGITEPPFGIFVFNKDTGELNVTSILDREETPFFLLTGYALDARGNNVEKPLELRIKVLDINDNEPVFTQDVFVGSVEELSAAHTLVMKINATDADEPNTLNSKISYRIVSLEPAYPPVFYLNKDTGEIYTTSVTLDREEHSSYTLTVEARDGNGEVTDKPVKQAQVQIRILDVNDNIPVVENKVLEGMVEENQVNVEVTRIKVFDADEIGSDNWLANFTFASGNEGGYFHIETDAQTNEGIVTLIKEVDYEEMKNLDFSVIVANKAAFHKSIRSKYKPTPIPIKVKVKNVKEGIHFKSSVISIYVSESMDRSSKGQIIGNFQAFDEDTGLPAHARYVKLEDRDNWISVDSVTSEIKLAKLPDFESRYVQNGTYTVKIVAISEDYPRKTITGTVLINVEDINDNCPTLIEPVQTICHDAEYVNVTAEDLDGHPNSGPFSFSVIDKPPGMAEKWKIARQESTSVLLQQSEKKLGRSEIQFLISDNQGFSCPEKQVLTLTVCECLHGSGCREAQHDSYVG
Description: Surface plasmon resonance of Ad3 fiber knobs on immobilized DSG2. The format is binding. To be noted: affinity to DSG2. The procedure:
FIG. 7A-7B. SPR analysis of non-dimerized Ad3 fiber knob interactions with DSG2. FIG. 7A) DSG2 was immobilized on sensorchips, and background was automatically subtracted from the control flow cell. The Ad3 fiber knobs (w/o dimerization domain: “noDD”) were injected for 3 minutes at 2.5 μg/ml followed by a 2.5 minutes dissociation period. FIG. 7B) Summary of SPR data. […] The extracted data are resumed in the table. Wt=Ad3 fiber knob without mutations FIG. 8A-8G. Electron microscopy and 3D structure of Ad3 fiber knob mutant JO-2.
Surface Plasmon Resonance: Acquisitions were done on a BIAcore 3000 instrument. HBS-N (GE-Healthcare, Pittsburgh, PA) supplemented with 2 mM CaCl2) was used as running buffer in all experiments at a flow rate of 5 [l/min. Immobilization on CM4 sensorchip (BIAcore) was performed using DSG2 at 10 μg/ml diluted in 10 mM Acetate buffer pH 4.5 injected for 10 minutes on ethyl(dimethylaminopropyl) carbodiimide (EDC)/N-Hydroxysuccinimide (NHS) activated flow-cell. A control flow-cell was activated by (EDC/NHS) and inactivated by ethanolamine. Different concentrations of Ad3 fiber knob proteins were injected for 3 minutes association followed by 2.5 minutes dissociation time, and the signal was automatically subtracted from the background of the ethanolamine deactivated EDC-NHS flow cell. Kinetic and affinity constants were calculated using the BIAeval software.

B1: D261N (protein)
chain: MKVSALKEKVSALKEKVSALKEKVSALKEKVSALKEGSGGGSGGGSGGGSNSIALKNNTLWTGPKPEANCIIEYGKQNPDSKLTLILVKNGGIVNGYVTLMGASDYVNTLFKNKNVSINVELYFDATGHILPDSSSLKTDLELKYKQTADFSARGFMPSTTAYPFVLPNAGTHNENYIFGQCYYKASNGALFPLEVTVMLNKRLPDSRTSYVMTFLWSLNAGLAPETTQATLITSPFTFSYIREDD
On to B1, for which the “Inhibition of Ad3-GFP infection of HeLa cells, in words” value with Ad3-GFP virus is recorded as “least reduced”.

B2: JO-4 (protein)
chain: MKVSALKEKVSALKEKVSALKEKVSALKEKVSALKEGSGGGSGGGSGGGSNSIALKNNTLWTGPKPEANCIIEYGKQNPDSKLTLILVKNGGIVNGYVTLMGASDYVNTLFKNKNVSINVELYFDATGHILPDSSSLKTDLELKYKQTADFSARGFMPSTTAYPFVLPNAGTHNENFIFGQCYYKASDGALFPLEVTVMLNKRLPDSRTSYVMTFLWSLNAGLAPETTQATLITSPFTFSYIREDD
In the case of B2, in the assay with DSG2, binding was characterised by a dissociation constant (Kd) of 11.4 nM.
